In PMC11960969, “Mdga2 deficiency leads to an aberrant activation of BDNF/TrkB signaling that underlies autism-relevant synaptic and behavioral changes in mice” (PLOS Biology, 2025):

Key:
TrkB (TrkB-VN) = test: BiFC assay in HeLa cells (TrkB-VN with MDGA2-VC or ΔMAM-VC); format: cell-based, human; conditions: 24 h, Venus fluorescence
Experimental: (§1) Fig 3 MDGA2 interacts with TrkB and suppresses TrkB activity. (A) Primary hippocampal neurons derived from Mdga2^ +/− (Het) mice and their wild-type (WT) littermates at DIV 7 were treated with different doses of BDNF for 30 min. Equal amounts of protein lysates were subjected to immunoprecipitation (IP) with an anti-TrkB antibody, followed by immunoblotting with an anti-phosphotyrosine (pTyr) antibody or the anti-TrkB antibody. The pTyr levels were quantified by densitometry, normalized to total TrkB levels, and then compared to those of WT controls. n = 3 per group. (B) WT mouse brain lysates were subjected to IP with an anti-MDGA2 antibody and a control IgG, and immunoblotted (IB) for the components indicated. mBDNF, mature BDNF; ImBDNF, immature BDNF. […] Immunoprecipitated TrkB levels were quantified by densitometry, normalized to input levels, and compared to respective controls (set to one arbitrary units). n = 3 per group. […] Levels of phosphorylated proteins were quantified by densitometry, normalized to respective total protein levels and compared to controls (set to one arbitrary units). n = 6 per group. […] P-values were determined by two-tailed unpaired Student t-test in (A) and one-way ANOVA with Tukey’s multiple comparisons test in (H, I, J). *p < 0.05, **p < 0.01, ***p < 0.001, ns: not significant. […]

[1] = tested on: TrkB signaling (pTrkB, pAkt, pmTOR); test: Immunoblotting of TrkB/Akt/mTOR phosphorylation in primary neurons transfected with MDGA2, ΔMAM or V930I; format: cell-based, mouse; conditions: for pAkt level normalized to total protein / pTrkB level normalized to total protein / pmTOR level normalized to total protein: KO neurons transfected, WT/Ctrl set to one
Experimental: Fig 3 MDGA2 interacts with TrkB and suppresses TrkB activity. (A) Primary hippocampal neurons derived from Mdga2^ +/− (Het) mice and their wild-type (WT) littermates at DIV 7 were treated with different doses of BDNF for 30 min. Equal amounts of protein lysates were subjected to immunoprecipitation (IP) with an anti-TrkB antibody, followed by immunoblotting with an anti-phosphotyrosine (pTyr) antibody or the anti-TrkB antibody. The pTyr levels were quantified by densitometry, normalized to total TrkB levels, and then compared to those of WT controls. n = 3 per group. (B) WT mouse brain lysates were subjected to IP with an anti-MDGA2 antibody and a control IgG, and immunoblotted (IB) for the components indicated. mBDNF, mature BDNF; ImBDNF, immature BDNF. (C) Hippocampal neurons from WT mice at DIV 7 were immunostained with antibodies against MDGA2 (red) and TrkB (green), and then counter-stained with DAPI (blue). Images were acquired by a confocal microscope. Scale bar: 10 μm. (D) Surface plasmon resonance (SPR) analysis of the binding between recombinant MDGA2 protein and recombinant TrkB protein. TrkB was immobilized on a Biacore CM5 chip and tested for its binding with MDGA2 at the concentrations indicated. (E) Computer simulation of the binding mode of TrkB and MDGA2. The predicted binding domain of TrkB (the d5 domain) is highlighted by a red square and labeled in brown. The predicted binding domain of MDGA2 (the MAM domain) is highlighted by a red square and labeled in yellow. (F) HEK293T cells were co-transfected with TrkB-Flag and GFP-tagged full-length MDGA2 (MDGA2-GFP) or an MDGA2 deletion fragment lacking the entire MAM domain (ΔMAM-GFP). Cell lysates were subjected to IP with control IgG and antibodies against Flag or GFP, and immunoblotted for the components indicated. […] The scheme of MDGA2-ΔMAM is also shown. (G) HeLa cells were co-transfected with TrkB that is tagged with the N-terminal Venus fragment (TrkB-VN) and full-length MDGA2 or MDGA2-ΔMAM that are tagged with the C-terminal Venus fragment (MDGA2-VC or ΔMAM-VC) for 24 h. After immunostaining with antibodies against MDGA2/MDGA2-ΔMAM (pink) and TrkB (red), cells were observed by confocal microscopy. Venus signal (green) indicates the interaction between MDGA2 and TrkB. Schematic diagrams depicting the BiFC assay are also shown. Scale bars: 10 μm. (H, I) Equal amounts of protein lysates from primary neurons derived from Het, KO, and their WT littermate mice (H), and from WT primary neurons transfected with GFP control, MDGA2-GFP or ΔMAM-GFP (I) were subjected to IP with IgG and an anti-BDNF antibody, and then immunoblotted for the components indicated. Immunoprecipitated TrkB levels were quantified by densitometry, normalized to input levels, and compared to respective controls (set to one arbitrary units). n = 3 per group. (J) Neurons derived from KO mice were transfected with GFP control (Ctrl), MDGA2-GFP, or MDGA2-ΔMAM-GFP, and neurons derived from their WT littermates were transfected with GFP control (Ctrl). Equal amounts of protein lysates were subjected to immunoblotting for the proteins indicated. Levels of phosphorylated proteins were quantified by densitometry, normalized to respective total protein levels and compared to controls (set to one arbitrary units). n = 6 per group. Data represent mean ± SEM. P-values were determined by two-tailed unpaired Student t-test in (A) and one-way ANOVA with Tukey’s multiple comparisons test in (H, I, J). *p < 0.05, **p < 0.01, ***p < 0.001, ns: not significant. The data underlying this figure can be found in S1 Data, specifically in the sheet labeled “Figure 3”.
Fig 7 The autism spectrum disorder (ASD)-associated MDGA2 V930I mutation impairs the MDGA2-TrkB interaction and MDGA2’s inhibitory effect on the tyrosine kinase B (TrkB) signaling. (A) Schematic depiction of the WT human MDGA2 and its V930I mutation constructs that are tagged with GFP. […]

BDNF-TrkB interaction = test: BDNF-TrkB Co-IP (anti-BDNF or anti-TrkB) in primary neurons / brain of Het, KO, WT and in WT neurons transfected with MDGA2 or ΔMAM; format: cell-based, mouse; conditions: IP anti-BDNF, Fig 3I
Experimental: as §1

TrkB (TrkB-Flag) = test: Co-IP of MDGA2 and its truncations with TrkB-Flag in HEK293T cells; format: binding, human; conditions: HEK293T cells co-transfected with TrkB-Flag and GFP-tagged MDGA2 constructs
Experimental: as §1, with “BDNF. (C) Hippocampal neurons from WT mice at DIV 7 were immunostained with antibodies against MDGA2 (red) and TrkB (green), and then counter-stained with DAPI (blue). Images were acquired by a confocal microscope. Scale bar: 10 μm. (D) Surface plasmon resonance (SPR) analysis of the binding between recombinant MDGA2 protein and recombinant TrkB protein. TrkB was immobilized on a Biacore CM5 chip and tested for its binding with MDGA2 at the concentrations indicated. (E) Computer simulation of the binding mode of TrkB and MDGA2. The predicted binding domain of TrkB (the d5 domain) is highlighted by a red square and labeled in brown. The predicted binding domain of MDGA2 (the MAM domain) is highlighted by a red square and labeled in yellow.” for “BDNF.”

B1: MDGA2-ΔMAM: truncated form of MDGA2 lacking its MAM domain (protein)
chain: PPTVRIVHSGLACNIEEERYSERVYTIREGETLELTCLVTGHPRPQIRWTKTAGSASDRFQDSSVFNETLRITNIQRHQGGRYYCKAENGLGSPAIKSIRVDVYYLDDPVVTVHQSIGEAKEQFYYERTVFLRCVANSNPPVRYSWRRGQEVLLQGSDKGVEIYEPFFTQGETKILKLKNLRPQDYANYSCIASVRNVCNIPDKMVSFRLSNKTASPSIKLLVDDPIVVNPGEAITLVCVTTGGEPAPSLTWVRSFGTLPEKTVLNGGTLTIPAITSDDAGTYSCIANNNVGNPAKKSTNIIVRALKKGRFWITPDPYHKDDNIQIGREVKISCQVEAVPSEELTFSWFKNGRPLRSSERMVITQTDPDVSPGTTNLDIIDLKFTDFGTYTCVASLKGGGISDISIDVNISSSTVPPNLTVPQEKSPLVTREGDTIELQCQVTGKPKPIILWSRADKEVAMPDGSMQMESYDGTLRIVNVSREMSGMYRCQTSQYNGFNVKPREALVQLIVQYPPAVEPAFLEIRQGQDRSVTMSCRVLRAYPIRVLTYEWRLGNKLLRTGQFDSQEYTEYAVKSLSNENYGVYNCSIINEAGAGRCSFLVTGKAYAPEFYYDTYNPVWQNRHRVYSYSLQWTQMNPDAVDRIVAYRLGIRQAGQQRWWEQEIKINGNIQKGELITYNLTELIKPEAYEVRLTPLTKFGEGDSTIRVIKYSAPVNPHLREQDLATKNSVD
modifications: left off: GFP, end not stated, kept
notes: truncated form of MDGA2 lacking its MAM domain
How did the “interaction with TrkB (BiFC)” value (TrkB (TrkB-VN)) turn out when B1 was run?
Its value is “not MDGA2-ΔMAM”.

What about the “pAkt level normalized to total protein” value ([1]; replicate 1) of the same molecule?
The value was 2.92 arbitrary units.

And the “pTrkB level normalized to total protein” value ([1]; replicate 1)?
Its value is 2.14 arbitrary units.

What about the “pmTOR level normalized to total protein” value ([1]; replicate 1) of the same molecule?
The value was 3.01 arbitrary units.

What about the “pAkt level normalized to total protein” value ([1]; replicate 2) of the same molecule?
Its value is 2.51 arbitrary units.

What about the “pTrkB level normalized to total protein” value ([1]; replicate 2) of the same molecule?
Its value is 2.17 arbitrary units.

And the “pmTOR level normalized to total protein” value ([1]; replicate 2)?
The value was 2.5 arbitrary units.

And the “pAkt level normalized to total protein” value ([1]; replicate 3)?
Its value is 2.41 arbitrary units.

What about the “pTrkB level normalized to total protein” value ([1]; replicate 3) of the same molecule?
Its value is 2.23 arbitrary units.

What about the “pmTOR level normalized to total protein” value ([1]; replicate 3) of the same molecule?
Its value is 2.06 arbitrary units.

And the “pAkt level normalized to total protein” value ([1]; replicate 4)?
Its value is 2.21 arbitrary units.

What about the “pTrkB level normalized to total protein” value ([1]; replicate 4) of the same molecule?
Its value is 2.41 arbitrary units.

And the “pmTOR level normalized to total protein” value ([1]; replicate 4)?
The value was 1.59 arbitrary units.

And the “pAkt level normalized to total protein” value ([1]; replicate 5)?
The value was 1.76 arbitrary units.

And the “pTrkB level normalized to total protein” value ([1]; replicate 5)?
Its value is 2.01 arbitrary units.

What about the “pmTOR level normalized to total protein” value ([1]; replicate 5) of the same molecule?
The value was 1.49 arbitrary units.

And the “pAkt level normalized to total protein” value ([1]; replicate 6)?
The value was 1.68 arbitrary units.

What about the “pTrkB level normalized to total protein” value ([1]; replicate 6) of the same molecule?
Its value is 1.69 arbitrary units.

And the “pmTOR level normalized to total protein” value ([1]; replicate 6)?
Its value is 1.31 arbitrary units.

And the “overactivation of TrkB signaling (pTrkB, pAkt, pmTOR) upon expression” value ([1]; Mdga2-/- neurons, Fig 3J, n = 6)?
Its value is “not MDGA2-ΔMAM”.

What about the “interaction between BDNF and TrkB upon overexpression” value (BDNF-TrkB interaction) of the same molecule?
Its value is “not MDGA2-ΔMAM”.

And the “interaction with TrkB (Co-IP)” value (TrkB (TrkB-Flag))?
Its value is “abolished the MDGA2-TrkB interaction”.
